Test results taken from the domain aggregation screens of Martell et al. (2025).

Assay: soluble fraction after stress (log2 fold change); higher = more stays soluble; pooled small domains, quantitative proteomics
Conditions: stress: 50 degC
In short: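 The stress applied to every library was 50°C. These custom libraries of small protein domains were pooled and measured at high throughput with quantitative proteomics as the read-out. Aggregation propensity is expressed as the base-two logarithm of the fold change in how much of each protein remains soluble. The higher the value, the more of that protein stays in solution.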

Point of comparison: “HMGDIQFMEYRINHSSGWIGKNISDFAAVSKNLVILIKRGQDVVIPRGPTAIMEDDVLVLHA”, “soluble fraction (log2)” value -1.6. Against it:
- HMGAGKVVDGVTYDFVFDVDVADGQPPLRLPYNRGEDVYQAAERFILRNELPATYREQIVNFIVQNTPG — higher, -0.131
- HMGAISGEQREFYTVFRGHLNSHVGEFKVEDIENLLMKAKTEVPDLLEEEFLKMGEAILNRYRN — higher, -0.0826
- HMGAKEHLAGETLRMAVELLSEKQGIPAEQALIRFISSPVYDALYDLDTGMWTQGPTRLLEAFEALE — within 0.2 log units, -1.7
- HMGALARLLASVEQELGVTRDRMTRTQKQEAVTLLNEWGAFTLRKSVEDVAEALGVSRFTVYNYLERAEA — lower, -2.74
- HMGALSLDMLFDRFDALQEQSMGDKTEGGQELRGMIRTFIEQEKLDIRVTRTTTNAALLEMIEKEMQG — higher, -0.451
- HMGASALTEREREVLRLLEGGGSDKRIARQLAISEHGVRYHLKSIYKKLGVHDRVSAIAAGRRLAS — higher, -0.21
- HMGASTQLVEIKNAYENGEWQNVIDLAGKLHEKYNGSEEDKEAQEMAKNSQSKLDEAAAAKAAEEA — higher, -0.033
- HMGASYSQFLDQVDSGNVQKVAFGGDMRGGTSQLTYTTRGGQSSTITAPFDRDLINVLRTKNVEIVQEEP — higher, 0.139
- HMGATFITSSKDNAINIRQAAGTDSKVIETIKNGHILESSEKSGEWYKVTYYDSDIKKTFTGYIHNSQLK — higher, 0.159
- HMGAVQFAEQKIHIGSRWIGKKISEFSAESDAFVILIKRGSEVVIPRGPTDIVENDVLVIHVPD — lower, -2.56
- HMGAVVSPMPGVILDIKVKEGDSVSEGQTVIILEAMKMENEIVSEFTGTVSAIRVKKGDTVDTDAVLVEI — higher, -0.393
- HMGAYPENSLLKERGQSAVYLIQENRKRLFFNAEAFLINGYNWKDIQVVDDLSKILTGKVIYAK — lower, -2.76
- HMGDAATVFRDHYNINSAAQAQAALDRKEALWEQPNPWRDSDNREVFDWAAQTVKDRFDSGKYKPK — higher, 0.129
- HMGDDVRKNILDVLSKFERVDITDLDSLELVRFYLEIEDIFDIEIKENDFYRLKSVDSIVDYIRNKSFF — higher, -1.2
- HMGDITALMPGKVIQIIVKEGQEIKVGDPLIVIESMKMENTISSEVNGTIKSINIQIDDNVQFDQVLFTV — lower, -2.1
- HMGDITIPDLQGMSFDQAREKLKALGLSIGKISYTSDTSKDDGVVISQGLQAGGKASKGATVDITINET — higher, 0.0588
- HMGDLEEAVKDFSEAIRLNDSWAEAYANRAVVYAEQGDAAQSDQDAEKARLLGVDQNRLNEMLNAVNS — higher, 0.0258
- HMGDLKALMPGKVTQVLVSGGQKVKVGEPVLLMESMKMEQTIVATKDGDISEILVSEGDTVEVGKIMIKI — higher, 0.163
- HMGDLTVPDLSGLTVDQAKQRLKDMGLVLGKITTQEDSSKPDGVIISQSPSADGKINKGQLVDVVVNKLS — higher, 0.0463
- HMGDTHKVPGVKGVNVEQAMDMLSRLDLKAVVIDSVYVKDKKLGTVIEQNPVEGSVVKPGRPIYLVVNSRS — higher, 0.242
- HMGDTISVPAVRTLAYNKAMDILNAEGLKGIVADSVYDNHTAPGTVIEQNPKAGTIVKEGREVFLTIHA — higher, 0.103
- HMGDWITGTVTRIADNGWGTFQPENAHNTVSIPPKMVADNQLKEADSIKIIAEPSPDGTKTFIKAISRE — higher, -0.00712
- HMGEDSEPVQVPDVTGQPLWEARRTLSSMGLKVLDDGGSGSVTAQMPSAGATLRNGGQMMLYTYDEALPE — higher, 0.133
- HMGEEIRTWTDAQGRKIEARMSMLDGDQVLLELKDGRKIPYPLAKLSADDAHYARHFASASASD — higher, 0.0254
- HMGEFVQLKNRTGSVIEAKILNYQNGKVKLQRKDGVIFVVPISIFDRMSSSIIENKAKEMDSF — higher, 0.00542
- HMGEIHAQIPGLVSHLFVKEGNTVQVEQKLFILEAMKMENEIDSPIQGTVKRIHIATGSKVEKGDLIMEIS — higher, -0.505
- HMGEKFTFGQIAKAKAYAKTYANDMTSAVKNIEAIATGLSKHPEVADTLKKANENQELNRITKLAG — higher, 0.149
- HMGEKPTEITLSNAISVQELAEKLYVSETDIIRTLFLDGIIVNINQVLDLETAVKVGDQLGVTITIVE — higher, -1.2
- HMGEKTVPNVIGQKLATAKQLLEKEGLTVGSTSYNKNQADKDTVLSTDPAPGSHLSEGAKVNLTLSSGA — higher, 0.261
- HMGEKVIAVSGGFDPIHVGHLRMMQDAAQHGRLVVIVNSDEWLLKKKGYVFMPWEERAELIGAYDFVDE — higher, -0.977
- HMGELDPKIIAQINTFLQGITKLIEHPGNKDAKKTALGALHKLTFDQNITANFGKQLGQLDQVIQSSEET — higher, 0.112
- HMGELGPGSRGQAVRALQERLMALGFPLARFGADGIFGRETTGALRAFQHVAGLSPTGLGDHETLKWLGII — higher, -0.935
- HMGELTNALATLSERERDVARLVAQGLDNRQIAAQLFLSEGTVRNRISDILDKLALTNRTQLAIAWLHAE — higher, -0.588
- HMGEPTLTIRVVSYNPQSGEMVVVARDPLSGRYALATLNVRTGAGQMIGPQGELLPIENFALGS — higher, -0.985
- HMGEQVAVPDVTKKSVREVNNILTSAGLRLQIEGSGISVRQDPPADTMVAPDTVVTVSFEPP — higher, 0.168
- HMGEQVFSRKDLAINGNDLKAVFGWPPGPKYREALDQLFHWVLEDPARNRRETLLAYLHSLYD — higher, -0.0199
- HMGESEKTLELVSQKDALVDEAFFFVRFQALLESNKTKGAQDLLDQSNHLSAAKLLQANAYLDIV — higher, 0.119
- HMGESFEELAREISDDTGSKTEGGETGLFPRGVMAPQFEEAAFLLKVGDISEPIRTKFGYHIIKLKEIKP — higher, -0.156
- HMGESVVVPDLRGKTLEEARAILKKVDLDYEINDSTYSKTAVPGTIRDIVPAPGSHVKAGRILFVSING — higher, -0.145
- HMGETISVPAVRSLAYDRAVDMLTAEGLKGIVADSVYDNRTQPGTVIEQNPKAGTIVKEGREVYLTINA — higher, 0.157
- HMGFAPEAAREEVAQLIGQRGRAVTVLRPSGQVEIAGRRFEATVEVGAVDAGDTIVVRGQTAFALLVEKAD — higher, 0.0301
- HMGFKLQRYTTFVVERLKKYQDTPAAQMHDLLKEHYPDFPAVSPKTVYNYVMKIRQEHGLPAV — lower, -3.63
- HMGFSERLAQAMSHAGYTQGGLAKAVGMAQSSVNKLLNNANSSRKTVEIASVLGVRPEWLSTGEGDML — higher, 0.00207
- HMGFSKGKRDLIRMIKLAIRELADDNGRAQIEDVITRLVQEGHSRDEIRLQIDMFLRQGEAMEPKQGIIKL — higher, 0.325
- HMGFSLEQFGTDPDLKKIVENAFERIITASEGRIFKSDFSSNNSALPLEIFSFLIAVILLKLSGMN — higher, -0.142
- HMGFVATRSRKFLPFSEARAITRGLGFSNQKDYKEWIKGNGNELLLPFNPWRTYGDSGWKGWKDFLGTDKA — higher, -1.03
- HMGFYDLFINLADKVGSLADVTQILAEARINLVNVHILEIREEIDGIAQLTFSSEKDRQKALELLKTKYK — higher, -1.33
- HMGGDFVEHLKDLASEAPVIRLVNTIIGRVIDLRASDIHLEPFDDGLHVRYRVDGVIHPGELVPPRLS — higher, 0.0558
- HMGGEGQIEIREREGIPAEAWVDGVMRGQTPLRVEHVSIGTRRVELRAEGRPPVAADVLVRPTVTALVELS — higher, 0.271
- HMGGEHPIPEDWAVNEANYEHGAKFYGYTRAHVDAEAQAFRDQYAANGKKYVDWDAHFRTFMRWQNERRYG — higher, -0.111
- HMGGEPVSARVPDTLHGARLDATAAALFPDFSRSRLAEWIKAGRLRRNDQPAKPRDKVAVDDHLLLIPEY — higher, 0.0696
- HMGGFSVTAEAFDGTPEVGKTVGFTAGSTKIKVEDTKGDATFGTILEKETVGFGEGKYTYFYIGL — higher, -0.223
- HMGGKAITGGEGEIIIRADKAETVAIYGIDGRLVHRVSTEAGDTKRVSVPAGIYIVKGAKVVV — higher, ≥ 0.62
- HMGGKTAVVTGSLVNVRKGPGTGNALVGQVARGDELPVLGQDGDWYQIKLANGSNGWVAGWLVSLKDAVP — higher, 0.432
- HMGGLIDQSIQEIIDKYSVPGKKIQKAQRLKIVAEMHTKGIFKMRGGVQQAAQALGVTRYTVYNDLEVMN — lower, -2.89
- HMGGLLSVIQKKAINNVKDRYSENAIKSMTKVQLHDLIKAETSRLLDPANAKETPEYQAFLEE — higher, 0.0926
- HMGGLSAEQKNGIQSVLKNFDPKNLTSADAKSITSEFKKLGVQPGKDLETTMAASGFDAKEVGRLAF — higher, 0.0781
- HMGGPRDVPYSTFLIEVEKGQVAEVTIQDHKITGTYKNSNEPFITNAPDDPDLVSRLIKYGVGVQAKPPE — higher, -0.0153
- HMGGREEAGTDIARLLGYINDIHGEELIAKLEYYQKMLGSENFAVLMSRLPDGQKKELREQNLYSEYV — higher, -0.145
- HMGGRRHANMSREEEAAFLAPFFEKAAQGGILVVREIRQALDAHLGRTVPLSTVYNLLHRHNWRKL — lower, -2.71
- HMGGRTITVGISENMTVKDIAQMLEEKGLIEDARLFVVQELLSAYHKEIKPGIYDLSTDMTAAQMLEIMS — higher, -0.464
- HMGGSIDITTAPPGAKIYLDADYYGKTPKRLENISAGTYRLHLLHPEKGEVYRSVTLNEKNGTLKIDENLN — higher, 0.124
- HMGGTATDYYNQGRTAYDVGDYNGALMNFQEAVRLDPRYGEAYYGLGKAYEALNMQNQALDAYLSAI — higher, -0.16
- HMGGVSTDKPLNWDADGTSKLTQEQIDYLRSTYDLSDMSKQDYYDLMADLTNMNAISIKDVISQYVK — higher, -0.0536
- HMGGYVVVGDKDGFWSVVSTPVSKAKAEELLKDTTFPKGEKGKIVSVAEAMSHKKVIGKEYLESGGT — higher, 0.117
- HMGHASPGNREALQFALERHQARAAEFAEKAGLSIANASTKFKQLWEQGFLMRNESVADSGGVEFLYQR — higher, -0.0221
- HMGHEISLNNSRFLKLLNKTKISISNDDTRHYLNGIFLHLTEAHGRQFLTGVATDSHRLSSSSLEID — higher, -0.0045
